Results: patent US20090255014A1 (HELMHOLTZ ZENTRUM F R INFEKTIONSFORSCHUNG, published 2009)

Target: T1, native Cpn10 of Oleispira antarctica (Oleispira antarctica, UniProt Q8KM31 1-97)
T1 construct: Co-chaperonin; also called co-chaperonin Cpn10; co-chaperonin
T1 sequence: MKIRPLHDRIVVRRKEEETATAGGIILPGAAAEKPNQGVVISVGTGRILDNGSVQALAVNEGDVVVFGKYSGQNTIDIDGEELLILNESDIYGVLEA
Assay: conclusion from in vitro refolding of denatured mtMDH with Cpn10 and ATP
Description: The behaviour of the stabilized single ring mutant led to the conclusion that at the low temperature, the co-chaperonin Cpn10 could bind even to the heptameric conformation, whereas at elevated temperature presumably Cpn10 could not be released from this heptameric single ring.

B1: stabilized single ring mutant Glu461Ala/Ser463Ala/Val464Ala of Cpn60 of O. antarctica (other)
chain: MAAKDVLFGDSARAKMLVGVNILADAVRVTLGPKGRNVVIEKSFGAPIITKDGVSVAREIELKDKFENMGAQMVKEVASQANDQAGDGTTTATVLAQAIISEGLKSVAAGMNPMDLKRGIDKATAAVVAAIKEQAQPCLDTKAIAQVGTISANADETVGRLIAEAMEKVGKEGVITVEEGKGLEDELDVVEGMQFDRGYLSPYFINNQEKMTVEMENPLILLVDKKIDNLQELLPILENVAKSGRPLLIVAEDVEGQALATLVVNNLRGTFKVAAVKAPGFGDRRKAMLQDLAILTGGQVISEELGMSLETADPSSLGTASKVVIDKENTVIVDGAGTEASVNTRVDQIRAEIESSTSDYDIEKLQERVAKLAGGVAVIKVGAGSEMEMKEKKDRVDDALHATRAAVEEGVVAGGGVALIRALSSVTVVGDNEDQNVGIALALRAMEAPIRQIAGNAGAAGAAVVDKVKSGTGSFGFNASTGEYGDMIAMGILDPAKVTRSSLQAAASIAGLMITTEAMVADAPVEEGAGGMPDMGGMGGMGGMPGMM
notes: also called triple mutant Glu461Ala/Ser463Ala/Val464Ala
binding result: binds
